For the series, the system named is Che9c RecT annealase (Mycobacteriophage Che9c). As to the kind of experiment: cell_activity. To be noted: oligo recombineering, about 1 ug oligo, M. smegmatis.

Consider “180-mer hyg oligo carrying 60 base insertion”, for which the activity (recombinants per survivor) stood at 2e-06.
